Test results from US20230416760A1 (CURATORS OF THE UNIVERSITY OF MISSOURI, published 2023).

B1: BADC2 (AT1G52670), Single hybrid motif protein, Arabidopsis thaliana (other)
chain: TTLRSVKAIQLSTVPPAETEAIADVKDSDETKSTVVNTHLMPKSSEVEALISEITDSSSIAEFELKLGGFRLYVARKLTDESSPPPQQIQPVVAASATPEGVHTNGSATSSSLAITKTSSSSADRPQTLANKAADQGLVILQSPTVGYFRRSKTIKGKRTPTICKEKDIVKEGQVLCYIEQLGGQIPVESDVSGEIVKILREDGEPVGYNDALITVLPSFPGIKKLQ
notes: His-tagged or untagged from E. coli, bait/prey fusion in yeast two-hybrid, native protein in co-IPs; also called AtBADC2
B2: BADC1 (AT3G56130), biotin/lipoyl attachment domain-containing protein, Arabidopsis thaliana (other)
chain: AKAAKSSTTTISDGSSDASVSDGKKTVRRITFPKEVEALVHEMCDETEVAVLQLKVGDFEMNLKRKIGAATNPIPVADISPTVAPPIPSEPMNKSASSAPSPSQAKPSSEKVSPFKNTSYGKPAKLAALEASGSTNYVLVTSPAVGKFQRSRTVKGKKQSPSCKEGDAIKEGQVIGYLHQLGTELPVTSDVAGEVLKLLSDDGDSVGYGDPLVAVLPSFHDINIQ
notes: Recombinant and yeast two-hybrid constructs were made without the transit peptide predicted by TargetP; also called AtBADC1

Key:
[1] = test system: all three BADCs (recombinant BADC1, BADC2, BADC3)
[2] = biological target: α-carboxyltransferase (α-CT) subunit of hetACCase, AT2G38040, Arabidopsis thaliana (Arabidopsis thaliana) (UniProt Q9LD43); test: co-IP from A. thaliana chloroplast lysate with anti-α-CT antibody, LC-MS/MS, n=7
[3] = biological target: BCCP2 (AT5G15530), biotin carboxyl carrier protein isoform 2, Arabidopsis thaliana (Arabidopsis thaliana) (UniProt Q9LLC1); test: co-IP from A. thaliana chloroplast lysate with anti-BCCP2 antibody, LC-MS/MS, n=7
[4] = biological target: the molecule itself; test: intact mass analysis and non-reducing SDS-PAGE of purified recombinant protein
[5] = biological target: T1, heteromeric acetyl-coenzyme A carboxylase (hetACCase) of Arabidopsis thaliana (Arabidopsis thaliana); test: inhibition of ACCase activity in 20-day-old A. thaliana leaf extracts by increasing concentrations of recombinant BADC1
T1 chain 1: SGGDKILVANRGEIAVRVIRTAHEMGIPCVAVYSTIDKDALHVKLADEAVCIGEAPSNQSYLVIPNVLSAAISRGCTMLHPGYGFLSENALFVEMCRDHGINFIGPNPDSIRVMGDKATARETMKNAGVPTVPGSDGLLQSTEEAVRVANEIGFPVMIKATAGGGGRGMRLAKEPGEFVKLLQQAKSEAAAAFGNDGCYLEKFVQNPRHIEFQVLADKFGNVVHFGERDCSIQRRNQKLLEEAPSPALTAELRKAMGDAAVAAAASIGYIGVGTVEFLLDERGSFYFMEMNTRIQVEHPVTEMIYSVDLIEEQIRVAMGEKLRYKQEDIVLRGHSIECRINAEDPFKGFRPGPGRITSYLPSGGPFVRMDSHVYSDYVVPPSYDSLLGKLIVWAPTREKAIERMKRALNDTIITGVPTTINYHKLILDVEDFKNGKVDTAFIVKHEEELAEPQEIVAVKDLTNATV
T1 chain 2: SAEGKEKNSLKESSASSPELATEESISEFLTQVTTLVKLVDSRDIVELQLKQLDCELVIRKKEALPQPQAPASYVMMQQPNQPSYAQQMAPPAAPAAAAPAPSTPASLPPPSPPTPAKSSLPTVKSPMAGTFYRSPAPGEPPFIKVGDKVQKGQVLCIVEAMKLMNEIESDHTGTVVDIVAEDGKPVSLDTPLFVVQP
T1 chain 3: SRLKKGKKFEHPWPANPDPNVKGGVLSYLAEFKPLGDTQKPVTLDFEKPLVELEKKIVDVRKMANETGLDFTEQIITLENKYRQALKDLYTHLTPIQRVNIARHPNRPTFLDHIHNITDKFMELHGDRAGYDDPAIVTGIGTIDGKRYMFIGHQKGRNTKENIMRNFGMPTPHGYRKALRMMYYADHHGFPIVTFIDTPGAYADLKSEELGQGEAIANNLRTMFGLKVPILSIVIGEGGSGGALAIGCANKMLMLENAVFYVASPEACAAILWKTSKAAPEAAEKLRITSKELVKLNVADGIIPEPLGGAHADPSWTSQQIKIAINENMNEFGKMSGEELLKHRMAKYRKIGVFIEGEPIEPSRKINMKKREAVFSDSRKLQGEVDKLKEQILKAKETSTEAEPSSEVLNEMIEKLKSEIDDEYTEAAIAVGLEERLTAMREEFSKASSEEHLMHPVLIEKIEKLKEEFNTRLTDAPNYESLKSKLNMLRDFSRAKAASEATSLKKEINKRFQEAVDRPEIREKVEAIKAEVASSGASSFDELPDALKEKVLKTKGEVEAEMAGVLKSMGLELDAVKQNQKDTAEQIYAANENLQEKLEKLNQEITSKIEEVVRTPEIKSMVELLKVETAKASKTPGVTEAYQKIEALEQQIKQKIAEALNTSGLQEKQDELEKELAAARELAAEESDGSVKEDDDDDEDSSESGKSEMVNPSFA
T1 chain 4: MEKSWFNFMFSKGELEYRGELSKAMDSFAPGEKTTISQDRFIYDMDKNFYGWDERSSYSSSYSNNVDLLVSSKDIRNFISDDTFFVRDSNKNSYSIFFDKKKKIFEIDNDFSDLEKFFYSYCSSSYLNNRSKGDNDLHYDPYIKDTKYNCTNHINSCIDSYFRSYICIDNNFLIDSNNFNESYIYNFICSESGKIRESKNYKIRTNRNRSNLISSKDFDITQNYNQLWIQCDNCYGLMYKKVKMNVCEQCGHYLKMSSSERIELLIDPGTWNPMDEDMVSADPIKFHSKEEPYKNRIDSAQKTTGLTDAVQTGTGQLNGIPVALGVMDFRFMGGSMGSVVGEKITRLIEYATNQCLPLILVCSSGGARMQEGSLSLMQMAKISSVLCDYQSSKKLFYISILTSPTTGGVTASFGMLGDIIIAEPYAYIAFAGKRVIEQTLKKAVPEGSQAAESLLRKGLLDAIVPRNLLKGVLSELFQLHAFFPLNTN
Description: ACCase activity was monitored in vitro in 20-day-old A. thaliana leaf extracts with increasing concentrations of recombinant BADC1. Specific activity was determined for each experiment and 0 μM controls were normalized to 1. Specific activity values for controls ranged from 0.84-2.00 nmol/min/mg. Each data point represented the average of four biological replicates, with each biological replicate comprised of four light-adapted leaves.

| Molecule | hetACCase activity in ten-day-old A. thaliana silique extracts (H14CO3 incorporation), 10 µM recombinant protein [1] | replicates (of seven) of the co-IP in which the protein was present [2] [replicates] | replicates (of seven) of the co-IP in which the protein was present [3] [replicates] | binding result [4] | Ki [5] [µM] |
| --- | --- | --- | --- | --- | --- |
| heteromeric acetyl-coenzyme A carboxylase (hetACCase) of Arabidopsis thaliana | all three BADCs inhibited hetACCase activity by 25 to 37% |  |  |  |  |
| B1 |  | 2 | 6 | no binding |  |
| B2 |  | 1 | 7 |  | ~4.3 |
